Experimental data reported in paper PMC5709738 (The EMBO Journal, 2017).

T1: fluorescently labelled full-length Ctf19-Mcm21 (Kluyveromyces lactis, UniProt Q6CRN7+Q6CVQ9)
T1 construct: we purified full-length K. lactis; NT-647-NHS red fluorescent dye on lysine side chains (chemical label); made in house; host or cells: Escherichia coli BL21 Rosetta 2(DE3)pLysS
T1 sequence (Q6CRN7 1-270): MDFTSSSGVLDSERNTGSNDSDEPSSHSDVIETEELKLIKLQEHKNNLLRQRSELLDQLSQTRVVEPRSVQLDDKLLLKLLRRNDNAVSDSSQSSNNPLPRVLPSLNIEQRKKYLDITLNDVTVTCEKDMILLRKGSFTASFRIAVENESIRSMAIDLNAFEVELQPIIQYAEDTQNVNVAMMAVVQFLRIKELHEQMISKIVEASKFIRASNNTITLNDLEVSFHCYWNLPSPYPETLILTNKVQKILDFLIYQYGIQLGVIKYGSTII
T1 sequence (Q6CVQ9 1-293): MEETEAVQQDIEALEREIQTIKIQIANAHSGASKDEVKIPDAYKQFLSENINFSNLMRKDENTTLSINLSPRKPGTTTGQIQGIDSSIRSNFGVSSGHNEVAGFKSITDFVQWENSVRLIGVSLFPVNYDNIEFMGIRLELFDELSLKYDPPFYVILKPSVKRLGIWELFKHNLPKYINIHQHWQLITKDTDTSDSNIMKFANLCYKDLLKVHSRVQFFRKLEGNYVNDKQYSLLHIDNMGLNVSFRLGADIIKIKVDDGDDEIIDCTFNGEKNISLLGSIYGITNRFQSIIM

T2: Nkp1 (K. lactis) (Kluyveromyces lactis, UniProt Q6CPR4 1-210)
T2 construct: Nkp1 of Kluyveromyces lactis; also called non-essential kinetochore protein 1; HisNkp1; source: E. coli BL21 Rosetta 2(DE3)pLysS, purified
T2 sequence (looked up): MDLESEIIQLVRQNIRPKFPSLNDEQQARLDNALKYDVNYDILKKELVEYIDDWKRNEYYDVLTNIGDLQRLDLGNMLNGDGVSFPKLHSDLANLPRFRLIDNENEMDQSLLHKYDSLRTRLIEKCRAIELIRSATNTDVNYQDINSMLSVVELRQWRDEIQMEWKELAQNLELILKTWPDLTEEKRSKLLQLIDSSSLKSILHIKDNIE

T3: COMA (K. lactis, full length: Ame1, Ctf19, Mcm21, Okp1) (Kluyveromyces lactis, UniProt Q6CUE5 1-292; Q6CRN7 1-270; Q6CVQ9 1-293; Q6CJY0 1-383)
T3 construct: Ame1 of Kluyveromyces lactis; Ctf19 of Kluyveromyces lactis; Mcm21 of Kluyveromyces lactis; Okp1 of Kluyveromyces lactis; copies: + + +
T3 sequence (looked up) 1: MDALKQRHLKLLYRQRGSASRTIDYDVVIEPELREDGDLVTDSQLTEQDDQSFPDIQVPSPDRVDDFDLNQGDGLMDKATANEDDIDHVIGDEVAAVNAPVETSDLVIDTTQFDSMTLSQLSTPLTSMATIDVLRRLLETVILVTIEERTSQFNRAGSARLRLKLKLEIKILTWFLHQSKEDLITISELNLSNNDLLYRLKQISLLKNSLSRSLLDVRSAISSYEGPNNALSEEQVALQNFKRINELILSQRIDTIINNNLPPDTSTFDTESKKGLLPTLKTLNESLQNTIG
T3 sequence (looked up) 2: T1 sequence (Q6CRN7 1-270)
T3 sequence (looked up) 3: T1 sequence (Q6CVQ9 1-293)
T3 sequence (looked up) 4: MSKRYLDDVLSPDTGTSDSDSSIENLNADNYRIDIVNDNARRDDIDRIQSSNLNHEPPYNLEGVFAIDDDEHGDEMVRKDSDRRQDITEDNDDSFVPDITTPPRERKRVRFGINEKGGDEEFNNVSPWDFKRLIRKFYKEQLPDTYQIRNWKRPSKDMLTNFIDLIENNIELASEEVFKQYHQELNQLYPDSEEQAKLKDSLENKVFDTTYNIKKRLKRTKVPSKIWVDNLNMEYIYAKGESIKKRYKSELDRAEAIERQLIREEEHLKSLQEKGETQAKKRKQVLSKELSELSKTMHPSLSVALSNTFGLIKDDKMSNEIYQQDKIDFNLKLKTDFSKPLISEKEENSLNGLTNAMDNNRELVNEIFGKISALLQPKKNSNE

T4: Ctf19_D-RWD-Mcm21_D-RWD-Okp1_229-383 (K. lactis) (Kluyveromyces lactis, UniProt Q6CRN7 107-270; Q6CVQ9 108-293; Q6CJY0 229-383)
T4 construct: Ctf19 of Kluyveromyces lactis, residues 107-270; Mcm21 of Kluyveromyces lactis, residues 108-293; also called Ctf19-Mcm21-Okp1 variant that includes Okp1 segment 3; CMO; source: E. coli BL21 Rosetta 2(DE3)pLysS, co-expressed, purified; copies: + +
T4 sequence (looked up) 1: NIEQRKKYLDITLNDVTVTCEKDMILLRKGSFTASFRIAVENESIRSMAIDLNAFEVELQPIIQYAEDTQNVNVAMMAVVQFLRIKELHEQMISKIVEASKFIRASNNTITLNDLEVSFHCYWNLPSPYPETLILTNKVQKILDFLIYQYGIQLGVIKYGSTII
T4 sequence (looked up) 2: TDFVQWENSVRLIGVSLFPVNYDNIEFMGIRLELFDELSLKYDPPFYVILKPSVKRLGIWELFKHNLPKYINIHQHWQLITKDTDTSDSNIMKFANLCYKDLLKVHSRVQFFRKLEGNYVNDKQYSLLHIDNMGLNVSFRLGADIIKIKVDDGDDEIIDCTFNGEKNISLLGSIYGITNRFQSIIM
T4 sequence (looked up) 3: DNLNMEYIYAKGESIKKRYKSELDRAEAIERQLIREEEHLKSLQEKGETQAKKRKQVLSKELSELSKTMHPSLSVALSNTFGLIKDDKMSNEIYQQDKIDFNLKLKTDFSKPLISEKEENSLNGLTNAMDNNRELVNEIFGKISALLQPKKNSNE

T5: full-length Ctf19-Mcm21 (K. lactis) (Kluyveromyces lactis, UniProt Q6CRN7 1-270; Q6CVQ9 1-293)
T5 chain 1: T1 sequence (Q6CRN7 1-270)
T5 chain 2: T1 sequence (Q6CVQ9 1-293)

T6: full-length Ctf19-Mcm21 (K. lactis) (Kluyveromyces lactis, UniProt Q6CRN7 1-270; Q6CVQ9 1-293)
T6 construct: Ctf19 of Kluyveromyces lactis; Mcm21 of Kluyveromyces lactis; for microscale thermophoresis it was labelled on lysine side chains with the red dye NT-647-NHS; also stands for the Ctf19-Mcm21 subassembly of COMA in nanoflow mass spectra; source: E. coli BL21 Rosetta 2(DE3)pLysS, co-expressed, purified
T6 sequence (looked up) 1: T1 sequence (Q6CRN7 1-270)
T6 sequence (looked up) 2: T1 sequence (Q6CVQ9 1-293)

B1: Ame1-Okp1 (K. lactis, full length) (complex, Kluyveromyces lactis)
chain 1: T3 sequence (looked up) 1
chain 2: T3 sequence (looked up) 4
notes: Ame1 of Kluyveromyces lactis; Okp1 of Kluyveromyces lactis; stands as the Ame1-Okp1 part of COMA; also called Okp1-Ame1; source: E. coli BL21 Rosetta 2(DE3)pLysS, co-expressed with Ctf19 and Mcm21 versions
B2: Nkp2 (K. lactis) (natural protein, Kluyveromyces lactis, UniProt Q6CSR8 1-151, looked up)
chain: MLHEVLYKHLDGILVSRLYTEDQFVDLFSRTIPESNTVIASQLYKSYEENDQRIIEKIDKLIDNKLSLIRVELEREQIEDSISLEEVNKLLHSIDDMLQQHLNQLNIELDNKNTKLLKYAMELSDIEAIDTSMYDNVAKLITDMETNQPSS
notes: Nkp2 of Kluyveromyces lactis; also called non-essential kinetochore protein 2; source: E. coli BL21 Rosetta 2(DE3)pLysS, purified
B3: Nkp1-Nkp2 heterodimer (K. lactis) (complex, Kluyveromyces lactis)
chain 1: T2 sequence (looked up)
chain 2: B2 chain
notes: Nkp1 of Kluyveromyces lactis; Nkp2 of Kluyveromyces lactis; also called NN; source: E. coli BL21 Rosetta 2(DE3)pLysS, purified
B4: Okp1_295-383 (K. lactis) (domain or fragment, Kluyveromyces lactis, UniProt Q6CJY0 295-383, looked up)
chain: KTMHPSLSVALSNTFGLIKDDKMSNEIYQQDKIDFNLKLKTDFSKPLISEKEENSLNGLTNAMDNNRELVNEIFGKISALLQPKKNSNE
notes: source: E. coli BL21 Rosetta 2(DE3)pLysS, co-expressed with Ctf19 and Mcm21 versions, purified
B5: Okp1-derived synthetic peptide with the Ctf19-Mcm21 binding motif (Okp1 residues 318-337) (peptide, UniProt Q6CJY0 318-337, looked up)
peptide: SNEIYQQDKIDFNLKLKTDF
notes: also called Okp1-derived peptide; source: synthetic peptide (Protein Chemistry core facility, IMP, Vienna)
B6: Okp1_229-383 (K. lactis) (domain or fragment, Kluyveromyces lactis, UniProt Q6CJY0 229-383, looked up)
chain: T4 sequence (looked up) 3
notes: also called Okp1 variant with segments 1, 2 and 3; source: E. coli BL21 Rosetta 2(DE3)pLysS, co-expressed with Ctf19_D-RWD and Mcm21_D-RWD, purified

Legend:
[1] = biological target: T1, fluorescently labelled full-length Ctf19-Mcm21; assay: microscale thermophoresis (MST) of Okp1-derived peptides with full-length Ctf19-Mcm21; format: binding, K. lactis; details: NT.115 Monolith, 22–25 °C, ~27 nM NT-647-labelled Ctf19-Mcm21, ITC/MST buffer pH 7.5, thermophoresis + T jump, mean and 68% confidence interval, three independent experiments
Method: For our MST measurements (Wienken et al, 2010), we labelled purified Ctf19‐Mcm21 with a red fluorescent dye (NT‐647‐NHS), which covalently modifies lysine side chains, in company‐provided “labelling buffer” at 22–25°C, according to the manufacturer's instructions (Nanotemper Technologies), with a 1:4 molar ratio of Ctf19‐Mcm21 and dye. We transferred fluorescently labelled Ctf19‐Mcm21 and Okp1‐derived peptide, or variants of Okp1‐derived peptide (Fig 6G), to ITC/MST buffer. We prepared dilution series of peptides, and combined with a uniform volume of Ctf19‐Mcm21 in PCR tubes, before transferring to NT.115 MST premium‐coated glass capillaries (Nanotemper Technologies). For all our measurements, the total Ctf19‐Mcm21 concentration in the capillaries was ~27 nM. We measured MST data on an NT.115 Monolith BLUE/RED instrument (Nanotemper Technologies) at 22–25°C. Samples were heated with an infrared laser (λ: 1,474 nm ± 15 nm) set to 20% MST power (30 s on; 5 s off), and fluorophores excited with a laser (excitation λ: 625 nm; emission λ: 680 nm) set to 60% LED power. For all our MST measurements, fluorescence intensity counts were 350–500. We derived our binding data from the “thermophoresis + T jump” fluorescence signal. For each unique peptide sample, we measured data from three separately prepared dilution series. […]

dynamic light scattering = format: physicochemical; details: DLS at 15 °C, ~21 µM (assuming COMA dimer) or similar concentrations
[2] = biological target: the molecule itself; assay: native MS; nanoflow spectra and tandem mode with collision-induced dissociation in the gas phase (argon); subassemblies stripped of subunits
Nkp1 (K. lactis) = biological target: T2, Nkp1 (K. lactis); assay: HDX-MS; purified assemblies in D2O buffer, quenched at pH ~2.5, pepsin column; exchange patterns compared between assemblies; details: both partners purified
[3] = biological target: B1; assay: native MS; nanoflow spectra and tandem mode with collision-induced dissociation in the gas phase (argon); subassemblies stripped of subunits; details: both partners purified
[4] = biological target: T3, COMA (K. lactis, full length: Ame1, …); assay: as above; details: both partners purified
[5] = biological target: T3, COMA (K. lactis, full length: Ame1, …); assay: SEC; reconstituted K. lactis COMA-Nkp1-Nkp2; peak fractions on Coomassie-stained SDS-PAGE
[6] = biological target: T4, Ctf19_D-RWD-Mcm21_D-RWD-Okp1_229-383 …; assay: SEC; analytical SEC of purified K. lactis samples alone and combined, Superdex 200 10/300, 4°C; fractions on SDS-PAGE; details: both partners purified
[7] = biological target: B3; assay: SEC; Superdex 200 HiLoad 10/600 prep grade column (Appendix Fig S7B); details: both partners purified
[8] = biological target: T5, full-length Ctf19-Mcm21 (K. lactis); assay: ITC
[9] = biological target: T6, full-length Ctf19-Mcm21 (K. lactis); assay: MST; Ctf19-Mcm21 labelled with NT-647-NHS on lysines, ~27 nM; dilution series of peptide; 22-25°C; ITC/MST buffer; three dilution series; details: both partners purified
[10] = biological target: T6, full-length Ctf19-Mcm21 (K. lactis); assay: ITC; peptide at 120 uM injected into 13 uM Ctf19-Mcm21 in the cell, 25°C, ITC/MST buffer; single set of sites fit; three independent measurements; details: both partners purified
[11] = biological target: B3; assay: SEC; analytical SEC of purified K. lactis samples alone and combined, Superdex 200 10/300, 4°C; fractions on SDS-PAGE; details: both partners purified

N330A-K332P: Okp1 peptide variant differing in two residue positions (SNEIYQQDKIDFALPLKTDF)
dissociation constant (Kd) [1]: no detectable binding

COMA-Nkp1-Nkp2: reconstituted COMA bound with Nkp1-Nkp2
hydrodynamic radius (Rh) (dynamic light scattering): 13.7 nm

B1
binding result [2]: binds

B2
binding result (Nkp1 (K. lactis)): binds | binding result [3]: binds | binding result [4]: binds

B3
binding result [5]: binds | binding result [6]: binds

B4
binding result [7]: binds

B5
Kd [8]: 43 nM | Kd [9]: ~80 nM | Kd [10]: ~40 nM

B6
binding result [11]: binds
